Test results reported in the supplement of paper PMC9170038.

Key:
MS2 coat protein [1] = assay: apparent KD of MS2 coat protein, switch ON state; designed switch direction (-1 OFF switch, 1 ON switch): -1; higher = weaker reporter binding; conditions: FMN input: 0 or 200 uM; Eterna round: R93 (includes R88 designs)
Method in brief: (§1)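 Illumina sequencing clusters served as templates for on-chip transcription of the designed RNA switches. SNAP-549-labelled MS2 coat protein was then titrated in twofold steps from 0.7 or 1.5 nM to 3 µM, allowing 0.8–1.5 h per step at first and 10–20 min per step later. The buffer held 100 mM Tris-HCl pH 7.5, 80 mM KCl and 4 mM MgCl2, without or with constant ligand. Apparent KD is the median per design of normalised cluster binding-curve fits.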

MS2 coat protein [2] = assay: apparent KD of MS2 coat protein, switch OFF state (with FMN for OFF switches, without FMN for ON switches); designed switch direction (-1 OFF switch, 1 ON switch): -1; higher = weaker reporter binding; conditions: FMN input: 0 or 200 uM; Eterna round: R93 (includes R88 designs)
Method in brief: as §1

Sequence	apparent KD of MS2 coat protein (MS2 coat protein [1])	apparent KD of MS2 coat protein (MS2 coat protein [2])
AAAAUGUCAGGAUAUGUAGCAAAAAGUGAUCCAAAAAAGCUACAGAAGGGACAUGAGGAUCACCCAUGUAAAAA [Ex4: 932]	0.244 µM	0.406 µM
AAACAUGGAGGAUAUACAUGAGGAUCACCCAUGUGUAUAAAAAAAUAUACAAAAGAAUGUAGAAGGCCAUGAAA [Ex 3 Snow]	0.0361 µM	0.0542 µM
AAACAUGGAGGAUAUACAUGAGGAUCACCCAUGUGUAUGAAAAAAUAUACAAAAGAAUGUAGAAGGCCAUGAAA [Mat - Exclusion 3 - Mayanna mod - D102]	0.0269 µM	0.0478 µM
AAACGUAGAGGAUAUACGAAAAGAUUACGAAAGUAAUCGGGACAUGAGGAUCACCCAUGUAGAAGGCUACGAAA [Mod2 of Meechl 64% 3]	0.0271 µM	0.061 µM
AAAGAACAUGAGGAUCACCCAUGUGAGGAUAUACGAGCGUGAGAAAGAUAAAACGAGCGUAGAAGGCACAAGAA [JR_Exclusion1_Sub4]	0.0434 µM	0.0493 µM
AAAGCACGAGGAUAUACAUGAGGAUCACCCAUGUAUAAAAAAAAAAAAAAAUCCUCAUGUAGAAGGCGUGCAAA	0.0174 µM	0.00978 µM
AAAGGACAAGGAUAUACAUGAGGAUCACCCAUGUAAAAAACAUAAUAAAAUAACUUAUGUAGAAGGUGUCCAAA [Mat - Exclusion 3 - Eli mod - D99]	0.0231 µM	0.0571 µM
AAAGGACGAGGAUAUACAUGAGGAUCACCCAUGUAAAAAACAUAAAAAAAGAAAUUAUGUAGAAGGCGUCCAAA [69%, Moding Meechl, 4]	0.0181 µM	0.0178 µM
AAAGGACGAGGAUAUACAUGAGGAUCACCCAUGUAAAAAACAUAAUAAAAGAAUUUAUGUAGAAGGCGUCCAAA [69%, Moding Meechl, 1]	0.0181 µM	0.0171 µM
AAAGGACGAGGAUAUACAUGAGGAUCACCCAUGUAAAGGGCAUAAAAAAAGAACUUAUGUAGAAGGCGUCCAAA [Mat - Exclusion 3 - Eli mod - D95]	0.035 µM	0.0268 µM
AAAGGAUCAGGAUAUGUGUGGAAAAAGUGUAUUCAAAAAAAACAUGAGGAUCACCCAUGUAGAAGGGAUCCAAA [Mod of 2Normal (20/19) by Nando, Round 1]	0.297 µM	0.397 µM
AAAGGGUCAGGAUAUCGAUUAAUAAUAAAAUAAAUAAAGAUCGAGAAGGGACAUGAGGAUCACCCAUGUAUAAA [May 77]	0.0459 µM	0.0546 µM
AAAGGGUCAGGAUAUUGAUUAAUAAUAAAAUAAAUAAAGAUCAAGAAGGGACAUGAGGAUCACCCAUGUAUAAA [May 78]	0.0405 µM	0.063 µM
AAAGUACGAGGAUAUACAUAGAUACAGAUACAUGUAGACGUACAUGAGGAUCACCCAUGUAGAAGGCGUACAUA [Mat - Same state - Mayanna Mod - D115]	0.154 µM	0.0747 µM
AAAGUGUCAGGAUAUGCUGCUCGUCACGAAAGUGAUGAGUAGCAGAAGGGACAUGAGGAUCACCCAUGUAAAGA [Exclusion 4.1d (Exclusion4-cac2 - mutated U at 5 and G at 4)]	0.11 µM	0.205 µM
AAAGUGUGAGGAUAUGCGAAAGGACACGAAAGUGACAAAGAGCAGAAGGUACAUGAGGAUCACCCAUGUAAAAA [milkweed 19]	0.0272 µM	0.0204 µM
AAAUAGCAAGGAUAUACAUGAGGAUCACCCAUGUAAAAAUGGAAAGUAAUAAAAUAAAGUAGAAGGUGCAAAUA [Ex 3 Tesla 3]	0.0269 µM	0.037 µM
AAAUAGCAAGGAUAUACAUGAGGAUCACCCAUGUGAACAAGGUAUGGAAUAGAAUAGAGUAGAAGGUGCAAAUA [Mod 2 of Ex 3 Tesla 8 - Jieux - Exclusion 3]	0.0313 µM	0.0434 µM
AAAUAGUUAGGAUAUACAUGAGGAUCACCCAUGUGGACUUAUGGCGAGUAAUUUAGUGGUAGAAGGGACUAAAA [EX2 Malc#29]	0.0462 µM	0.047 µM
AAAUGCUGAGGAUAUACAUGAGGAUCACCCAUGUAAAAUAAAUAAUGGGUGUAAACGUGUAGAAGGCAGCAUAA [Exclusion 3.14d (FMN+ favored )]	0.0338 µM	0.0168 µM
AAAUGCUGAGGAUAUACAUGAGGAUCACCCAUGUGAAAUAAAAAAUGUGUGUAAUCGUGUAGAAGGCAGCAUAA [Exclusion 3.13 (FMN+ favored more)]	0.0216 µM	0.0181 µM
AAAUUGUCAGGAUAUCGUAUAACUCUAAAAUAGAGGAGAUACGAGAAGGGACAUGAGGAUCACCCAUGUAAAAC [May 87]	0.0614 µM	0.0572 µM
